The text below walks through data of FireProtDB (doi:10.1016/j.bpc.2006.12.004).

Where “and” joins values, the source holds several entries; their conditions need not be identical. Identical values can stand only once.

The conditions of this series: pH 8.4, Thermal, Capillary electrophoresis, whole UniProt chain shown; for unfolding free energy: 25 °C.
Where [1] appears, read: Bos taurus, Tris Gly 25 mM 192 mM, NaCl 25 mM.
The mark [2] stands for this setting: Bos taurus, Tris Gly fructose 25 mM 192 mM 1.21 M, NaCl 25 mM.
[3] abbreviates: Bos taurus, Tris Gly sucrose 25 mM 192 mM 0.15 M, NaCl 25 mM.
The mark [4] stands for this setting: Bos taurus, Tris Gly sucrose 25 mM 192 mM 0.31 M, NaCl 25 mM.
The mark [5] stands for this setting: Bos taurus, Tris Gly sucrose 25 mM 192 mM 0.47 M, NaCl 25 mM.
The mark [6] stands for this setting: Bos taurus, Tris Gly sucrose 25 mM 192 mM 0.63 M, NaCl 25 mM.
Setting [7] is: Bos taurus, Tris Gly sucrose 25 mM 192 mM 0.96 M, NaCl 25 mM.
Where [8] appears, read: Aspergillus oryzae (strain ATCC 42149 / RIB 40), Tris Gly 25 mM 192 mM, NaCl 30 mM.
Setting [9] is: Aspergillus oryzae (strain ATCC 42149 / RIB 40), Tris Gly fructose 25 mM 192 mM 0.57 M, NaCl 30 mM.
Setting [10] is: Aspergillus oryzae (strain ATCC 42149 / RIB 40), Tris Gly fructose 25 mM 192 mM 1.21 M, NaCl 30 mM.
Setting [11] is: Aspergillus oryzae (strain ATCC 42149 / RIB 40), Tris Gly fructose 25 mM 192 mM 1.52 M, NaCl 30 mM.
[12] abbreviates: Aspergillus oryzae (strain ATCC 42149 / RIB 40), Tris Gly sucrose 25 mM 192 mM 0.15 M, NaCl 30 mM.
[13] abbreviates: Aspergillus oryzae (strain ATCC 42149 / RIB 40), Tris Gly sucrose 25 mM 192 mM 0.31 M, NaCl 30 mM.
The mark [14] stands for this setting: Aspergillus oryzae (strain ATCC 42149 / RIB 40), Tris Gly sucrose 25 mM 192 mM 0.47 M, NaCl 30 mM.
Setting [15] is: Aspergillus oryzae (strain ATCC 42149 / RIB 40), Tris Gly sucrose 25 mM 192 mM 0.63 M, NaCl 30 mM.
Setting [16] is: Aspergillus oryzae (strain ATCC 42149 / RIB 40), Tris Gly sucrose 25 mM 192 mM 0.80 M, NaCl 30 mM.

B1: Alpha-lactalbumin wild type, P00711 (protein)
chain: MMSFVSLLLVGILFHATQAEQLTKCEVFRELKDLKGYGGVSLPEWVCTTFHTSGYDTQAIVQNNDSTEYGLFQINNKIWCKDDQNPHSSNICNISCDKFLDDDLTDDIMCVKKILDKVGINYWLAHKALCSEKLDQWLCEKL
In general, Tm refers to the temperature at the midpoint of the melting transition. Consider B1, for which the unfolding free energy is, setting by setting: under setting [1], 3.3 kcal/mol; (Bos taurus, Tris Gly fructose 25 mM 192 mM 0.57 M, NaCl 25 mM) 4.5 kcal/mol; under setting [2], 5.6 kcal/mol; under setting [3], 3.8 kcal/mol; under setting [4], 4.6 kcal/mol; under setting [5], 5.3 kcal/mol. Also, the unfolding free energy amounted to 5.7 kcal/mol under setting [6] and 7 kcal/mol under setting [7]. Also, the midpoint of thermal melting (Tm) by setting is: under setting [1], 56.1 °C and 56 °C; under setting [2], 61.6 °C; (Bos taurus, Tris Gly fructose 25 mM 192 mM 1.83 M, NaCl 25 mM) 63.2 °C; under setting [3], 56.3 °C; under setting [4], 57.5 °C; under setting [5], 59 °C. The midpoint of thermal melting (Tm) is, setting by setting: under setting [6], 60.5 °C; under setting [7], 62.4 °C. The “heat capacity change of unfolding” value under setting [1] was found to be 2.1 kcal/mol/K. Further, the “unfolding enthalpy (van 't Hoff)” value under setting [1] is 69 kcal/mol.

B2: Guanyl-specific ribonuclease T1 wild type, P00651 (protein)
chain: MMYSKLLTLTTLLLPTALALPSLVERACDYTCGSNCYSSSDVSTAQAAGYQLHEDGETVGSNSYPHKYNNYEGFDFSVSSPYYEWPILSSGDVYSGGSPGADRVVFNENNQLAGVITHTGASGNNFVECT
For the protein B2, the unfolding free energy was found to be 8.2 kcal/mol under setting [8]; 9.1 kcal/mol (Aspergillus oryzae (strain ATCC 42149 / RIB 40), Tris Gly fructose 25 mM 192 mM 0.29 M, NaCl 30 mM); 9.5 kcal/mol under setting [9]; 10.5 kcal/mol under setting [10]; 11.2 kcal/mol under setting [11]; 9.1 kcal/mol under setting [12]. Moreover, the unfolding free energy under setting [13] came out at 9.5 kcal/mol, the unfolding free energy under setting [14] turned out to be 10.2 kcal/mol, the unfolding free energy under setting [15] is 10.6 kcal/mol and the unfolding free energy under setting [16] turned out to be 11.1 kcal/mol. Besides, the Tm is 62.6 °C and 62.5 °C under setting [8]; 64.5 °C under setting [9]; 66 °C (Aspergillus oryzae (strain ATCC 42149 / RIB 40), Tris Gly fructose 25 mM 192 mM 0.89 M, NaCl 30 mM); 66.5 °C under setting [10]; 68 °C under setting [11]; 63.6 °C under setting [12]. Also, the midpoint of thermal melting (Tm) by setting is: under setting [13], 64.7 °C; under setting [14], 65.9 °C; under setting [15], 66.5 °C; under setting [16], 67.1 °C. Moreover, under setting [8], the “heat capacity change of unfolding” value amounted to 1.3 kcal/mol/K. Moreover, the “unfolding enthalpy (van 't Hoff)” value under setting [8] was 98 kcal/mol.
